Reference: article PMC3762817, “Therapeutic Targeting of Tumor Growth and Angiogenesis with a Novel Anti-S100A4 Monoclonal Antibody” (PLoS ONE, 2013)

Target: T1, human recombinant RAGE-Fc Chimera (human, UniProt Q15109 23-342)
T1 construct: RAGE (receptor for advanced glycation end products), human; also called RAGE receptor; immobilized RAGE; source: bought: R&D Systems
Test: SPR; Biacore T100; about 1,000 RU of RAGE-Fc immobilised on a CM5 chip by amine coupling; S100A4 0.625-5 µM passed over at 15 µL/min, 60 s contact time; regeneration with 50 mM NaOH
Conditions: both partners purified

T1 sequence (Q15109 23-342, change not shown): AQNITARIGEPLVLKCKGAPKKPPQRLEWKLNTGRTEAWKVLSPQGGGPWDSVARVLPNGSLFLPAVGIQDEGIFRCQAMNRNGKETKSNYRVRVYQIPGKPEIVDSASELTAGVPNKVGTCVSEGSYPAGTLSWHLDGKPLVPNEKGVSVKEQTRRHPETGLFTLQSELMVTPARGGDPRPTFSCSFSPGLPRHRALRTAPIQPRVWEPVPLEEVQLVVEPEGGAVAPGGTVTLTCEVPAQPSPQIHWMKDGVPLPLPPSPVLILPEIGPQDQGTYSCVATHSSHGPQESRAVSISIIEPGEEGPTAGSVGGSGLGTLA

B1: human recombinant S100A4 (natural protein)
chain: not shown
notes: S100A4, human; The His tag is inferred, and its removal is not mentioned; also called S100A4 fusion protein
B1: binds.
